Results: article PMC3035450

Biological target: thrombin (UniProt P00734;P00734 328-363;364-622)
Experiment: SPR

B1: TBA (structured_DNA)
DNA: GGTTGGTGTGGTTGG
For B1, the Kd was 103 ± 5.1 nM.

B2: G1 (structured_DNA)
DNA: GGTTGGTGTGGTTGG
modifications: UNA-G at 1
Binder B2 has a Kd of 95.4 ± 3.9 nM.

B3: G10 (structured_DNA)
DNA: GGTTGGTGTGGTTGG
modifications: UNA-G at 10
B3 gave a Kd of 222 ± 9.3 nM.

B4: G15 (structured_DNA)
DNA: GGTTGGTGTGGTTGG
modifications: UNA-G at 15
For B4, the Kd was 155 ± 7.4 nM.

B5: G2 (structured_DNA)
DNA: GGTTGGTGTGGTTGG
modifications: UNA-G at 2
B5 was tested, and the Kd was 298 ± 5.7 nM.

B6: G5 (structured_DNA)
DNA: GGTTGGTGTGGTTGG
modifications: UNA-G at 5
In the case of B6, the Kd is reported as 425 ± 17.7 nM.

B7: G6 (structured_DNA)
DNA: GGTTGGTGTGGTTGG
modifications: UNA-G at 6
B7 was tested, and the Kd was 287 ± 12.3 nM.

B8: G8 (structured_DNA)
DNA: GGTTGGTGTGGTTGG
modifications: UNA-G at 8
For B8, the Kd was 913 ± 21.2 nM.
